# Assay results taken from the RNAGym collection of RNA variant scans (doi:10.1073/pnas.2313332121).
# Variants at the floor of the assay were thinned out.
# B1: TPR 5TU (parent)
# chain: GGAUCUUCUCGAUCUAACAAAAAAGACAAAUCUGCCACAAAGCUUGAGAGCAUCUUCGGAUGCAGAGGCGGCAGCCUUCGGUGGCGCGAUAGCGCCAACGUUCUCAACUAUGACACGCAAAACGCGUGCUCCGUUGAAUGGAGUUUAUCAUG
# Variants of: B1
# Assay: polymerase ribozyme fitness, log enrichment relative to wild type (log ratio); higher = more active; in vitro selection for triplet polymerase activity
# Procedure, shortened: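 Mutant libraries were PCR-built and transcribed for each subunit of a heterodimeric triplet polymerase ribozyme and selected for one round in triplicate at −7 °C, frozen, before gel excision of extended constructs and streptavidin-bead capture. Input and output libraries were Illumina-sequenced, keeping genotypes with ≥10 input reads and ≥1 read per output. Fitness is a logarithmic ratio of genotype to wild-type enrichment, in base 2, using inverse-variance-weighted replicate averages.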
row,Variant,polymerase ribozyme fitness (log ratio)
1,GGAUCUUCUCGAUCUAACAAAAAAGACAACUCUGCCACAAAGCUUGAGAGCAUUUUCGGAUGCAGAGGAAGCAGCCUUCGGUGGCGCGAUAGCGCCAACGUUCUCAACUAUGACACGCAAAACGCGUGCUCCGUUGCAUGGAGUUUAUCAUG,≤ -4.2
2,GGAUCUUCUCGAUCUAACAAAAAAGACAACUCUGCCCCAAAGCUUGAGCGCCUCUUGGGAUGCAGAGGCGGCAGCCUUCGGUAGCGCGAUAGCGCCAACGUUCUCAACUAUGACUCGCAAAACGCGUGCUCCGUUGAAUGGACUUUAUCAUG,≤ -4.2
3,GGAUCUUCUCGAUCUAACAAAAAAGACAACUCUGCCACAAAGCUUGAGAGCCUCUUCGGAUGCAGAGGCGGCAGCCUUCGGUGGUGCGAUAGCGCCAAAGUUCUCAACUAUGACUCGCAAAACGCGUGCUUCGUUGAAUGCAGUUUAUCAUG,≤ -4.2
4,GGAUCUUCUCGAUCUAACAAAAAAGACAACUCUGCCACAAAGCUUGGGAGCAUCUUCGGAUGCAGAGGCUGCAGCCUUCGGUGGCGCGAUAGCGCCAACGUGCUCAACUAUGACACGCAAAACGCUUGCUCCGUUGAAUGGAGUUUAUCAUU,≤ -4.2
5,GGAUCUUCUCGAUCUAACAAAAAAGACAUAUCUGCCACAAAGCUUGAGAGCAUCUUCGGAAGCAGAGGCGGCAGCCUUCGGUGGCGCGAUCGCGCAAACGUUCUCAACUAUGACACGCAAAACGCGUCCUCCGUUGAAUGGAGUUUAUCAUG,≤ -4.2
6,GGAUCUUCUCGAUCUAACAAAAAAGACAUAUCUGCCACAAAGCUUGAGAGCAUCUUCGGAUGCAGAGGCGGCAGCCUUCGGUGGCGCGAUAGCGCCAACGUUCUCAACUACGAGACGCAAAACGCGUGCUCCGUUGAAUUGAGUUUAUCAUG,≤ -4.2
7,GGAUCUUCUCGAUCUAACAAAAAAGACAUAUCUGCCACAAAGCUUGAGAGCAUCAUCGGGUGCAGAGGCGGCAGCCUUCGGUGGCACGAUAGCGCCAACGUUCUCAACUAUGACACGCAAAACGCGUGCCCCGUUGAAUGGAGUUUAUCAUG,≤ -4.2
8,GGAUCUUCUCGAUCUAACAAAAAAGACAUAUCUGCCACAAAGCUUGAGAGCAUCUUCGGAUGCAGAGGCGGCAGCCAUCAGUGGCGCGAUAACGCCAACGUUCUCAACUAUGACACGCAAAACGCGUGCUCCGUUGAAUGGAGUUUACCAUG,≤ -4.2
9,GGAUCUUCUCGAUCUAACAAAAAAGACAACUCUGCCACAACGCUUGAGAGCAUCUUCGGAUGCAGACGCGGCAGCCUUCGGUUGCGCUAUAGCGCCAACGUUCUCAACUAUGACACGCAAAACGCGUGCUCCGUUGAAUGAAGUUUAUCAUG,≤ -4.2
10,GGAUCUUCUCGAUCUAACAAAAAAGACAACUCUGCCACAAAGUUUGAGCGCAUCUUCGGAUGCAGAGGCGGCAGCCUUCGGUGGGGCGAUAGCGCCAACGUUCUCAAGUAUGACACGCAAAACGCGUGCUCCGUUGAAUGGAGUUUAUCAUG,≤ -4.2
11,GGAUCUUCUCGAUCUAACAAAAAAGACAACUCUGCCACAAAGCUUGAGAGCAUCUUCGGAUGCUAAGGCAGCAGCCUUCGGUGUCGCGAUCGCGCCAACGUUUUCAACUAUGACACGCAAAACGCGUGCUCCGUUCAAUGGAGUUUAUGAUG,≤ -4.2
12,GGAUCUUCUCGAUCUAACAAAAAAGACAACUCUGCCACAAGGCUUGAGAGCAUCUUCGGAUGCAGAGGCGGCAGCUUUCGGUAGCGCGUUAGCGCCAACGUUCUCAACUAUGACACGCAAAACACGUGCUUGGUUGAAUGGAAAUUAUAAUG,≤ -4.2
13,GGAUCUUCUCGAUCUAACAAAAAAGACAACUCUGCCACAAAGCUUGAGAGCAUCUUCGGAUGCAGAGGCGGCAGCCUUCGGUGGCGCGAUAGCGCCAACGUUCUCAACUAUGACACGCAAAACGCGUGCUCCGUUGAAUGGCGCUUAUCAUG,≤ -4.2
14,GGAUCUUCUCGAUCUAACAAAAAAGACAUAUCUGCCACAAAGCUUGAGAGCAUCUUCGGAUGCAGAGGCGGCAGCCUUCGGUGGCGCGAUAGCGCCAACGUUCUCAACGAUGACACGCAAAACGCGUGCUCCGUUGAAUGGAGUUUAUGAUG,≤ -4.2
15,GGAUCUUCUCGAUCUAACAAAAAAGACAACUCUGCCAAAAAGCUUGAGAGCAUUUUCGGGUGCAGAGGCGGCAGCCUUCGGUGUCGCGAUAGCGCCAACGUUCUCAACUAUGACACGCAAAACGCGUGCUCCGUUGAAUGAAAUUUAUCAUG,≤ -4.2
16,GGAUCUUCUCGAUCUAACAAAAAAGACAUAUCUGCCACAAAGCUUGAGAGCAUCUUCGGAUGCAGAGGCGGCAGCCUUCGGUGGCGCGAUAGCGCCAACGUUCUCAACUAUGACACGCAAAACGCGUGCUCCGAUGAAUGGAGUUUAUCAUG,≤ -4.2
17,GGAUCUUCUCGAUCUAACAAAAAAGACAUAUCUGCCACAAAGCUUGAGAGCAUCGUUGGAUGCAGACGCGGCAGCCUUCGGUGGCGCGAUAGCGCCAGCGUUCUCAACUAUGACACGCAAAACGCGUGCUCCGUUGAAUGGAGUUUAUCAUG,≤ -4.2
18,GGAUCUUCUCGAUCUAACAAAAAAGACAACUCUGCCACAAAGCUUGAGAGCAUUUUCGGAUGCAGAGGCGGCAGCCUUCGGUGGCGCGAUAGCGCGAACGUUCUCAACUAUGACACGCAAAACGCGUGCUCCGUUGAAUGAAGUUUAUCAUG,≤ -4.2
19,GGAUCUUCUCGAUCUAACAAAAAAGACAACUCUGUCACAAAGCUUGAGAGCAUUUUCGGAUGCAGAGGCGGCAGCCUUCGGUGGUGCGAUAGCGCCAACGUUCUCAACUAUGACACGCAAUACGCGUGCUCCGUUGAAUGGAGUUUAUCAUG,≤ -4.2
